“And” between values parts separate entries of the source, which are not always exact repeats. Identical values can stand only once.
Tests used:
[1] = biological target: FL-hFc, human IgM-Fc with a FLAG tag on the N-terminus of the CH2 domain (human); assay: non-reducing SDS-PAGE and western blot; culture supernatant of HEK293T cells transfected with pCAGGS-FL-hFc only, without IgJ
[2] = biological target: FL-hFc, human IgM-Fc with a FLAG tag on the N-terminus of the CH2 domain (human); assay: non-reducing SDS-PAGE and western blot; culture supernatant of HEK293T cells co-transfected with FL-hFc and IgJ-Myc; blotted with anti-FLAG and anti-Myc antibodies
[3] = biological target: human IgM-Fc pentamer (FL-hFc) combined with IgJ-Myc (human) (UniProt P01591)
Sequence of human IgM-Fc pentamer (FL-hFc) combined with IgJ-Myc (human) (P01591 whole entry): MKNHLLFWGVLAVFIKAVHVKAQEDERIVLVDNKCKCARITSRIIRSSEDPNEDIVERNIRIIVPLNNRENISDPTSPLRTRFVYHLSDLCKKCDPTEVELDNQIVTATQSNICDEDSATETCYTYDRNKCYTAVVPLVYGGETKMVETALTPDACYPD

[4] = biological target: human IgM-Fc pentamer (FL-hFc) combined with IgJ-Myc (human) (UniProt P01591); assay: sequential immunoaffinity co-purification; supernatant of co-cultured HEK 293T cells (hAIM-HA cells with FL-hFc and IgJ-Myc cells); anti-hAIM monoclonal antibody column, then anti-FLAG column; fractions blotted with anti-HA and anti-FLAG
[5] = biological target: human IgM-Fc pentamer (FL-hFc) combined with IgJ-Myc (human) (UniProt P01591); remark: listed apart in the source
[6] = biological target: T1, human recombinant AIM (apoptosis inhibitor of macrophage) (human, UniProt O43866 20-347); assay: SPR; Biacore 3000, 25°C; human rAIM covalently immobilised (2800 RU) on a CM5 chip; IgM-Fc monomer injected in 10 mM HEPES pH 7.4, 150 mM NaCl, 3 mM EDTA, 0.05% Tween-20 at 20 µL/min; 1:1 Langmuir model; apparent affinity; details: both partners purified
T1 construct: also called human rAIM; rAIM; source: purified recombinant
T1 sequence (looked up): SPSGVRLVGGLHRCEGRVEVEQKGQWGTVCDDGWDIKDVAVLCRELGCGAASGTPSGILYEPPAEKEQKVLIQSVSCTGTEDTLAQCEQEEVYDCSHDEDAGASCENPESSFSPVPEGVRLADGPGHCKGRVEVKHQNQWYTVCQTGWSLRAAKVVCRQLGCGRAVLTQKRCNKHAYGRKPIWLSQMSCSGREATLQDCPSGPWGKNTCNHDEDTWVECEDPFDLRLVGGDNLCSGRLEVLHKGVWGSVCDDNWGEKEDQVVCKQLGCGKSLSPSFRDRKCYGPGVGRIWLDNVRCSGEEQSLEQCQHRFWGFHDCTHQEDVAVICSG

## FL-hFc, human IgM-Fc with a FLAG tag on the N-terminus of the CH2 domain (domain or fragment)
[1]
  stoichiometry N: 5 and 6
[2]
  stoichiometry N: 5

B1: endogenous mouse AIM in serum (natural protein)
chain: ESPTKVQLVGGAHRCEGRVEVEHNGQWGTVCDDGWDRRDVAVVCRELNCGAVIQTPRGASYQPPASEQRVLIQGVDCNGTEDTLAQCELNYDVFDCSHEEDAGAQCENPDSDLLFIPEDVRLVDGPGHCQGRVEVLHQSQWSTVCKAGWNLQVSKVVCRQLGCGRALLTYGSCNKNTQGKGPIWMGKMSCSGQEANLRSCLLSRLENNCTHGEDTWMECEDPFELKLVGGDTPCSGRLEVLHKGSWGSVCDDNWGEKEDQVVCKQLGCGKSLHPSPKTRKIYGPGAGRIWLDDVNCSGKEQSLEFCRHRLWGYHDCTHKEDVEVICTDFDV
[3]
  circulating mouse AIM level in Δsμ mice 24 h after i.v. injection of 1 mg FL-hFc, as percent of that in the wild-type mouse (immunoblot of serum): 35%

B2: HA-tagged human AIM (natural protein)
chain: T1 sequence (looked up)
[4]
  mass of hAIM in 100 µg of the purified hFc-AIM complex: 20 µg
[5]
  half-life of hAIM in the blood of wild-type mice after i.v. injection of 100 µg hFc-AIM complex (less than 2 h for hAIM alone): 12 h

B3: monomeric human IgM-Fc (CH2-CH3-CH4) with a C-terminal Myc tag (domain or fragment)
chain: IAELPPKVSVFVPPRDGFFGNPRKSKLICQATGFSPRQIQVSWLREGKQVGSGVTTDQVQAEAKESGPTTYKVTSTLTIKESDWLGQSMFTCRVDHRGLTFQQNASSMCVPDQDTAIRVFAIPPSFASIFLTKSTKLTCLVTDLTTYDSVTISWTRQNGEAVKTHTNISESHPNATFSAVGEASICEDDWNSGERFTCTVTHTDLPSPLKQTISRPKGVALHRPDVYLLPPAREQLNLRESATITCLVTGFSPADVFVQWMQRGQPLSPEKYVTSAPMPEPQAPGRYFAHSILTVSEEEWNTGETYTCVVAHEALPNRVTERTVDKSTGKPTLYNVSLVMSDTAGTCY
modifications: Disulfide-linked dimer of the mu Fc chain (~100-110 kDa), N-glycosylated (HEK293T). C-terminal Myc tag, which blocks pentamer formation, omitted. Limits not printed: CH2 start by domain convention. …
[6]
  Kd: 153 nM
  koff: 0.00315 s⁻¹
  kon: 20500 M⁻¹ s⁻¹
